# According to patent publication US20090111753A1, “Nogo-A Polypeptide Fragments, Variant Nogo Receptor-1 Polypeptides, and Uses Thereof” (Yale University, priority 2004, published 2009):
# Tested on: NgR ligands
# Assay: Binding of alanine substituted NgR mutants to NgR ligands, summary categories
# Settings: AP-Nogo66, AP-B4C, AP-B4C66, AP-Lingo-1, AP-OMgp and AP-MAG; compared to wild type NgR
# Description: To better define how multiple ligands bind to the NgR protein, we examined a series of Ala-substituted NgR for ligand binding activity. NgR mutagenesis was done using the Quick Change Multisite Directed Mutagenesis Kit (Stratagene catalog #200514). Human NgR1 was used as a template. Ala substitutions were generated for each of the charged residues predicted to be solvent accessible at the surface of the ligand binding domain of NgR (Barton, W. A., et al., Embo J. 22:3291-3302 (2003); He, X. L., et al., Neuron 38:177-185 (2003)). We generated mutants in which 1-8 surface residues localized within 5 A of one another were Ala-substituted. Because of the coiling nature of the LRR structure, as residues juxtaposed on the protein surface are commonly separated by approximately 25 residues in the primary structure. In addition to mutations in specific charged surface patches, other mutations were targeted to glycosylation sites and to regions predicted to be involved in ligand binding based on the NgR structure (Barton, W. A., et al., Embo J. 22:3291-3302 (2003); He, X. L., et al., Neuron 38:177-185 (2003)). In addition, a variant corresponding to a human polymorphism was examined (D259N). None of the mutations altered the Leu residues that define the LRR structure itself or the Cys residues critical in the amino and carboxyl terminal capping domains. The vast majority of such Ala surface substitution mutants were expressed as immunoreactive polypeptides with a molecular weight and an expression level indistinguishable from wild type NgR (FIG. 4C and data not shown).
# This collection of 74 individual NgR mutants was interrogated for AP-Nogo-66, AP-Amino-Nogo-B4C, AP-MAG, AP-OMgp, and AP-Lingo-1 binding. AP-Nogo66, AP-MAG, AP-OMGP and AP-Lingo-1 constructs are described elsewhere (Fournier, A. E., et al., Nature 409:341-346 (2001); Liu, B. P., et al., Science 297:1190-1193 (2002); Mi, S., et al., Nat. Neurosci. 7:221-228 (2004); Wang, K. C., et al., Nature 417:941-944 (2002b)). The properties of the NgR mutants fell into one of three major categories (Table II and FIG. 5). A number of Ala substituted NgR polypeptides bound all of the ligands at wild type levels. […] In addition, a significant extent of the concave surface is dispensable for ligand binding.
# Alanine substituted NgR mutants were tested for their binding to AP-Nogo66, AP-B4C, AP-B4C66, AP-Lingo-1, AP-OMgp and AP-MAG and they fall into three categories: (1) Mutants that lose binding to all NgR ligands. (2) Mutants that still maintain binding to all NgR ligands. […] The D259N mutant is an asparagine substitution to mimic a human polymorphism.
row,ligand binding category of NgR mutant (Table II),Molecule
1,Binding to all ligands,"202, 205, 227: human NgR1 mutant, listed residues mutated to alanine (protein) CPGACVCYNEPKVTTSCPQQGLQAVPVGIPAASQRIFLHGNRISHVPAASFRACRNLTILWLHSNVLARIDAAAFTGLALLEQLDLSDNAQLRSVDPATFHGLGRLHTLHLDRCGLQELGPGLFRGLAALQYLYLQDNALQALPDDTFRDLGNLTHLFLHGNRISSVPERAFRGLASLARLLLHQNRVAHVHPHAFRDLGALMTLYLFANNLSALPTEALAPLRALQYLRLNDNPWVCDCRARPLWAWLQKFRGSSSEVPCSLPQRLAGRDLKRLAANDLQGCAVATGPYHPIWTGRATDEEPLGLPKCCQPDAADKASVLEPGRPASAGNALKGRVPPGDSPPGNGSGPRHINDSPFGTLPGSAEPPLTAVRPEGSEPPGFPTSGPRRRPGCSRKNRTRSHCRLGQAGSGGGGTGDSEGSGALPSLTCSLTPLGLALVLWTVLGPC"
2,Binding to all ligands,"296, 297, 300: human NgR1 mutant, listed residues mutated to alanine (protein) CPGACVCYNEPKVTTSCPQQGLQAVPVGIPAASQRIFLHGNRISHVPAASFRACRNLTILWLHSNVLARIDAAAFTGLALLEQLDLSDNAQLRSVDPATFHGLGRLHTLHLDRCGLQELGPGLFRGLAALQYLYLQDNALQALPDDTFRDLGNLTHLFLHGNRISSVPERAFRGLHSLDRLLLHQNRVAHVHPHAFRDLGRLMTLYLFANNLSALPTEALAPLRALQYLRLNDNPWVCDCRARPLWAWLQKFRGSSSEVPCSLPQRLAGAALKALAANDLQGCAVATGPYHPIWTGRATDEEPLGLPKCCQPDAADKASVLEPGRPASAGNALKGRVPPGDSPPGNGSGPRHINDSPFGTLPGSAEPPLTAVRPEGSEPPGFPTSGPRRRPGCSRKNRTRSHCRLGQAGSGGGGTGDSEGSGALPSLTCSLTPLGLALVLWTVLGPC"
3,Binding to all ligands,"202, 205, 250: human NgR1 mutant, listed residues mutated to alanine (protein) CPGACVCYNEPKVTTSCPQQGLQAVPVGIPAASQRIFLHGNRISHVPAASFRACRNLTILWLHSNVLARIDAAAFTGLALLEQLDLSDNAQLRSVDPATFHGLGRLHTLHLDRCGLQELGPGLFRGLAALQYLYLQDNALQALPDDTFRDLGNLTHLFLHGNRISSVPERAFRGLASLARLLLHQNRVAHVHPHAFRDLGRLMTLYLFANNLSALPTEALAPLAALQYLRLNDNPWVCDCRARPLWAWLQKFRGSSSEVPCSLPQRLAGRDLKRLAANDLQGCAVATGPYHPIWTGRATDEEPLGLPKCCQPDAADKASVLEPGRPASAGNALKGRVPPGDSPPGNGSGPRHINDSPFGTLPGSAEPPLTAVRPEGSEPPGFPTSGPRRRPGCSRKNRTRSHCRLGQAGSGGGGTGDSEGSGALPSLTCSLTPLGLALVLWTVLGPC"
4,Binding to all ligands,"171, 172, 175, 176: human NgR1 mutant, listed residues mutated to alanine (protein) CPGACVCYNEPKVTTSCPQQGLQAVPVGIPAASQRIFLHGNRISHVPAASFRACRNLTILWLHSNVLARIDAAAFTGLALLEQLDLSDNAQLRSVDPATFHGLGRLHTLHLDRCGLQELGPGLFRGLAALQYLYLQDNALQALPAATFAALGNLTHLFLHGNRISSVPERAFRGLHSLDRLLLHQNRVAHVHPHAFRDLGRLMTLYLFANNLSALPTEALAPLRALQYLRLNDNPWVCDCRARPLWAWLQKFRGSSSEVPCSLPQRLAGRDLKRLAANDLQGCAVATGPYHPIWTGRATDEEPLGLPKCCQPDAADKASVLEPGRPASAGNALKGRVPPGDSPPGNGSGPRHINDSPFGTLPGSAEPPLTAVRPEGSEPPGFPTSGPRRRPGCSRKNRTRSHCRLGQAGSGGGGTGDSEGSGALPSLTCSLTPLGLALVLWTVLGPC"
